The target in one series is His163 (UniProt position 288, GKQLNHGVLLV). The series can be described thus: kinetics. Particulars: 35 °C, constant ionic strength (four-component buffer; value not stated), 25 mM glycine, 25 mM acetic acid, 25 mM Mes, 75 mM Tris, 5 mM DTT, pH adjusted with HCl or NaOH.
The target in another series is Cys25 (UniProt position 150, GACGSCWAFSA). The experiment in a line: kinetics. Particulars: 35 °C, constant ionic strength (four-component buffer; value not stated), 25 mM glycine, 25 mM acetic acid, 25 mM Mes, 75 mM Tris, 5 mM DTT, pH adjusted with HCl or NaOH.
Setting [1] is: Enzyme-substrate complex (saturating Z-FR-MCA) in the presence of 40 µM heparin (10 kDa bovine lung heparin).
Where [2] appears, read: Enzyme-substrate complex (saturating Z-FR-MCA), no heparin (control).

As to “Cysteine protease B isoform CPB2.8 lacking the C-terminal extension (CPB2.8ΔCTE, rCPB2.8), cathepsin L-like (Leishmania mexicana; none (C-terminal extension deleted; residue range not stated))”, the pKa (usually the negative logarithm of the acid dissociation constant) with His163 (setting [1]) is 8.8±0.1; with His163 (setting [2]), 7.8±0.1; with Cys25 (setting [1]) it was 4.6± 0.1; with Cys25 (setting [2]), 5.1±0.1.

For the origin of these results see publication PMC3836952.
